Patent US20070185028A1, “Compositions and methods for treatment of protein misfolding and protein aggregation diseases” (priority 2004, published 2007)

Legend:
[1] = biological target: T1, equine alcohol dehydrogenase (ADH) (Equus caballus, UniProt P00327); test: αB crystallin protein pin array with alcohol dehydrogenase; type: binding; details: ADH as ligand in the pin array
T1 construct: purchased Sigma-Aldrich, MO 05646
Description: Synthesis of Pins, binding and detection of peptides binding to ligand proteins. The αB crystallin protein pin array was used to measure the interaction between peptides and chaperone target proteins including bovine βH crystallin, human γD crystallin, equine alcohol dehydrogenase (ADH) and porcine citrate synthase (CS) as described (FIG. 12). Ghosh and Clark, Protein Sci 14: 684-95, 2005.
Refer to the methods section for detailed protocols. The absorbance corresponding to the blue coloration in each well was measured at λ=450 nm and plotted against the amino acid sequence of the corresponding peptide in that well (FIGS. 13 and 14). Wells containing peptides that have strong interactions with target proteins are dark blue and wells containing peptides that have weak or no interaction with target proteins are light blue or clear.
The purity of the target proteins used in the pin array assays, bovine βH crystallin, human γD crystallin, equine alcohol dehydrogenase (ADH) and porcine citrate synthase (CS) were determined to be >90% by SDS-PAGE. In addition, primary antibodies for each target protein were specific to that target protein and consequently contaminating proteins that may bind to the peptides will not be detected. Eighty-four sequential and overlapping peptide fragments corresponding to residues 1-175 of human αB crystallin were synthesized employing a simultaneous peptide synthesis strategy developed by Geysen, called Multipin Peptide Synthesis (Mimotopes, San Diego, Calif.). Geysen, Southeast Asian J Trop Med Public Health 21: 523-33, 1990; Chin et al., J Org Chem 62: 538-539, 1997. Peptides were immobilized on derivatized polyethylene pins arranged in a microtiter ELISA plate format. Each peptide was eight amino acids in length and consecutive peptides were offset by two amino acids. All peptides were bound covalently to the surface of the plastic pins. The first peptide was 1MDIAIHHP8 and the last peptide was 168PAVTAAPK175 for human αB crystallin.
Ghosh and Clark, Protein Sci 14: 684-95, 2005. […] The intensity of the blue color in the wells was measured at 450 nm using an ELISA plate-reader (BioTek, Winooski, Vt.). The intensity of the blue color (plotted on the X-axis) was a measure of the interaction between αB crystallin peptides (plotted on the Y-axis) and target proteins. To measure the effect of temperature on the interactions between interactive peptides and the target proteins, the target proteins were heated in a water-bath at 45° C. for fifteen minutes prior to use. Pin arrays are unable to differentiate between monomers, dimers or oligomers of target proteins that exist in solution. Instead, pin arrays are very sensitive detectors of interactions between individual peptides and the entire population (monomers, dimers or oligomers) of specific target proteins that may exist in solution under specific conditions. Each target protein was assayed two to five times. A single pin array was used for all experiments and no change in interactions was observed after more than thirty repetitions. The last three peptides of the protein pin array, 163REEKPAVT170, 165EKPAVTAA172, 167PAVTAAPK174, correspond to the epitope (163REEKPAVTAAPKK175) recognized by the primary antibody for human αB crystallin. A positive reaction is observed for these three peptides in the absence of human αB crystallin as the ligand due to direct binding of the anti-human αB crystallin antibody to these three peptides. The loss of efficiency for the pin array was measured using this assay. The loss of efficiency for the pin array was determined to be <5% by after more than 30 assays.
The pattern of absorbance at k=450 nm when αB crystallin peptides were assayed with unheated and pre-heated ADH was similar to the absorbance pattern obtained with unheated and pre-heated βH/γD crystallin (FIG. 17). […]

[2] = biological target: beta amyloid (Homo sapiens, UniProt P05067); test: αB crystallin protein pin array, binding of beta amyloid; details: immobilized 8-mer peptide; absorption at 450 nm
Description: αB Crystallin peptides that bind the target protein beta-amyloid were identified by screening an αB crystallin protein pin array, which provides a systematic method for evaluating interactions between peptides corresponding to residues 1-175 of human αB crystallin and selected target proteins in a parallel and simultaneous manner.
Peptides were synthesized on derivatized polyethylene pins arranged in a microtiter plate format. Each peptide was 8 amino acids in length and consecutive peptides were offset by 2 amino acids. All peptides were covalently bonded to the surface plastic pins. The first immobilized peptide was 1MDIAIHHP8 and the last peptide was 168PAVTAAPK175 for the human αB crystallin.
After synthesis, the pins were pre-coated at room temperature with 2% Bovine Serum Albumin (BSA), 0.1% Tween-20 and 0.1% Sodium azide in 10 mM phosphate buffered saline pH 7.2 (PBS) for 1 hr, and washed three times for 10 mins each with 10 mM PBS. To screen for binding to the peptides, fixed concentrations of the target protein beta amyloid was dissolved in 10 mM PBS, containing 0.05% Tween-20, added to each well and incubated for 1 hr at room temperature. The pin array was washed three times for 10 mins each with 10 mM PBS, containing 0.05% Tween-20. Monoclonal or polyclonal primary antibodies for the target protein beta amyloid was diluted into PBS buffer, added to each well and incubated for 1 hr at room temperature. Subsequently, the pin array was washed three times for 10 mins each with 10 mM PBS containing 0.05% Tween-20. Anti-rabbit horse-radish peroxidase conjugate secondary antibodies was diluted into PBS buffer, added to each well and incubated for 1 hr at room temperature. The pin array was washed three times for 10 mins each with 10 mM PBS containing 0.05% Tween-20. A chromogenic substrate of horse-radish peroxidase 3,3′,5,5′-Tetramethylbenzidine (TMB) (Pharmingen, San Diego, Calif.) which is colorless was added, and the reaction was carried out for 45 min.
The reaction was stopped by adding 6N sulfuric acid, which changes the color from blue to yellow. The absorption at 450 nm was measured by an ELISA reader (BioTek, Winooski, Vt.).
The pin array was regenerated by sonication in a water bath (VWR Aquasonic, West Chester, Pa.) with 100 mM PBS, containing 1% Sodium dodecyl sulfate (SDS) and 0.1% 2-Mercaptoethanol@60° C. for 10 mins. Next, the pin array was rinsed three times in deionized water, preheated to 60° C. for 30 secs each time, and shaken in water preheated at 60° C. for 30 min. The pin array was then washed with methanol at 60° C. for 15 secs and air-dried and stored @−20° C. for future use. Each target protein was assayed 2-5 times against the human αB crystallin protein pin array peptides to verify the reproducibility of the results. Peptides numbered 5, 7, 8, 9, 13, 19, 22, 23, 24, 27, 35, 38, 45, 51, 52, 56, 57, 61, 66, 71, 72, and 79 in Table 2 reproducibly tested positive in the protein pin assay.

T1 sequence (P00327 whole entry): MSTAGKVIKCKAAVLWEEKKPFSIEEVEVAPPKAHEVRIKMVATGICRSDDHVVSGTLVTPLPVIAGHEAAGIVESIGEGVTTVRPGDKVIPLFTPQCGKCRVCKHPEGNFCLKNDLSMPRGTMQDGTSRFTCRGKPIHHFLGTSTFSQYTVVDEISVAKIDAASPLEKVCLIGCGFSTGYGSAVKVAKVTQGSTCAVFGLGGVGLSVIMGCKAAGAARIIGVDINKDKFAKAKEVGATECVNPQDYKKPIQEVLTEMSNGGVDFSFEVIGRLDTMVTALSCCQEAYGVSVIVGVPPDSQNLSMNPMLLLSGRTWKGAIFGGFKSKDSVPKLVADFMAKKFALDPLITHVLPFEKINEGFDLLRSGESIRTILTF

Row | Sequence | absorbance at 450 nm, interaction with ADH [1] | binding of beta amyloid in the protein pin assay [2]
1 | FSVNLDVK [Peptide 38] | Maximum absorbances | positive
2 | LTITSSLS [Peptide 66] | Maximum absorbances | positive
3 | WIRRPFFP [Peptide 5] | Maximum absorbances | positive
